Measurements from PMC11541587 (Nature Communications, 2024).

Molecular target: HA-AMFR (UniProt Q9UKV5 1-643)
Assay: co-IP

HA-AMFR, sequence (Q9UKV5 whole entry): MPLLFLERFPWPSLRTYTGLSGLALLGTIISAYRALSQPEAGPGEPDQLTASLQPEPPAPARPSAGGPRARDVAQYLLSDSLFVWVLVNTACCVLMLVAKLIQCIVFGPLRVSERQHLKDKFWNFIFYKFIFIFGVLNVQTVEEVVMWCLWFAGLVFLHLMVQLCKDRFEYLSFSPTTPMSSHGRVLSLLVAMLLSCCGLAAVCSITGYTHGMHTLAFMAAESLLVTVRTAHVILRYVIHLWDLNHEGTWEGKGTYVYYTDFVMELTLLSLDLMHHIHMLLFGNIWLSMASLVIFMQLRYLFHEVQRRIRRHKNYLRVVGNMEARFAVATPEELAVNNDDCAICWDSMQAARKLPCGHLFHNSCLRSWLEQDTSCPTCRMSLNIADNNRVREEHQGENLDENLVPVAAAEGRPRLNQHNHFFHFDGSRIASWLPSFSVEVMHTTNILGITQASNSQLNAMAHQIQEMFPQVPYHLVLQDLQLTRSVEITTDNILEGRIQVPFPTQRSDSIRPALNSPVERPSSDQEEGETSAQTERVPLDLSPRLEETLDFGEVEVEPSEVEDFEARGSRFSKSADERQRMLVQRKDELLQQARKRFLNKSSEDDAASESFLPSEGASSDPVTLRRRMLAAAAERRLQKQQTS

binding result: binds
B1: FAM134B (construct and tag not told for these supplementary panels) (natural protein)
chain: MASPAPPEHAEEGCPAPAAEEQAPPSPPPPQASPAERQQQEEEAQEAGAAEGAGLQVEEAAGRAAAAVTWLLGEPVLWLGCRADELLSWKRPLRSLLGFVAANLLFWFLALTPWRVYHLISVMILGRVIMQIIKDMVLSRTRGAQLWRSLSESWEVINSKPDERPRLSHCIAESWMNFSIFLQEMSLFKQQSPGKFCLLVCSVCTFFTILGSYIPGVILSYLLLLCAFLCPLFKCNDIGQKIYSKIKSVLLKLDFGIGEYINQKKRERSEADKEKSHKDDSELDFSALCPKISLTVAAKELSVSDTDVSEVSWTDNGTFNLSEGYTPQTDTSDDLDRPSEEVFSRDLSDFPSLENGMGTNDEDELSLGLPTELKRKKEQLDSGHRPSKETQSAAGLTLPLNSDQTFHLMSNLAGDVITAAVTAAIKDQLEGVQQALSQAAPIPEEDTDTEEGDDFELLDQSELDQIESELGLTQDQEAEAQQNKKSSGFLSNLLGGH
